# Assay results from US20160257748A1 (Amgen, published 2016).
# Columns and labels:
# folate receptor 1 [1] = target: T1, folate receptor 1 (human, UniProt P15328 25-234); assay: cell-based or functional assay
# folate receptor 1 [2] = target: T1, folate receptor 1; assay: cell-based or functional assay; remark: listed apart in the source
# [3] = target: T2, Human Epidermal Growth Factor Receptor (HER2) (human, UniProt P04626 23-1255); assay: FACS titration on T47D cells
# T2 construct: whole, on cells; also called human epidermal growth factor 2
# [4] = target: T2, Human Epidermal Growth Factor Receptor …; assay: cell-based or functional assay
# [5] = target: T2, Human Epidermal Growth Factor Receptor …; assay: cell-based or functional assay; remark: listed apart in the source
# [6] = target: T2, Human Epidermal Growth Factor Receptor …; assay: cell-based or functional assay; remark: listed apart in the source
# T1 sequence (P15328 25-234): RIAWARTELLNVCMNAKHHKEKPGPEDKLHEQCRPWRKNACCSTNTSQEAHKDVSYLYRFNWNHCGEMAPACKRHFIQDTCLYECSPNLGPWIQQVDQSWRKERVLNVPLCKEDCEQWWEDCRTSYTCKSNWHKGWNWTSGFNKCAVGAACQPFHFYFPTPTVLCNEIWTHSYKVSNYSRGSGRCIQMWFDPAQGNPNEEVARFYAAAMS
binder,measurement,setting,value
aFOLR1-Fc-aCD3 (bispecific antibody) chain 1: QVQLQESGPGLVKPSQTLSLTCTVSGGSISSGAYYWTWIRQHPGKGLEWIGYIYYSGSTYYNPSLKSRVSISIDTSKNQFSLKLSSVTAADTAVYYCARGSSSWFDYWGQGTLVTVSSASTKGPSVFPLAPSSKSTSGGTAALGCLVKDYFPEPVTVSWNSGALTSGVHTFPAVLQSSGLYSLSSVVTVPSSSLGTQTYICNVNHKPSNTKVDKRVEPKSCDKTHTCPPCPAPEAAGGPSVFLFPPKPKDTLMISRTPEVTCVVVDVSHEDPEVKFNWYVDGVEVHNAKTKPREEQYNSTYRVVSVLTVLHQDWLNGKEYKCKVSNKALPAPIEKTISKAKGQPREPQVYTLPPSRKEMTKNQVSLTCLVKGFYPSDIAVEWESNGQPENNYKTTPPVLKSDGSFFLYSKLTVDKSRWQQGNVFSCSVMHEALHNHYTQKSLSLSPGKAAAGGGGSGGGGSEVQLVESGGGLVQPGGSLKLSCAASGFTFNSYAMNWVRQAPGKGLEWVARIRSKYNNYATYYADSVKGRFTISRDDSKNTAYLQMNNLKTEDTAVYYCVRHGNFGNSYVSWWAYWGQGTLVTVSSASTKGPSVFPLAPSSKSTSGGTAALGCLVKDYFPEPVTVSWNSGALTSGVHTFPAVLQSSGLYSLSSVVTVPSSSLGTQTYICNVNHKPSNTKVDKRVEPKSC chain 2: not shown,"EC50 (concentration for half maximal lysis), T cell dependent cytolysis of Cal-51 cells",folate receptor 1 [1],0.114 nM
same,"EC50 (concentration for half maximal lysis), T cell dependent cytolysis of T47D cells",folate receptor 1 [1],0.105 nM
same,"EC50 (pM), T cell dependent cytolysis of Cal-51 cells",folate receptor 1 [2],60.9 pM
"aCD3/HER2 heterodimer (bispecific antibody, also called P136797.3; positive control heterodimeric antibody) chain 1: EVQLVESGGGLVQPGGSLKLSCAASGFTFNSYAMNWVRQAPGKGLEWVARIRSKYNNYATYYADSVKGRFTISRDDSKNTAYLQMNNLKTEDTAVYYCVRHGNFGNSYVSWWAYWGQGTLVTVSSGGGGSGGGGSELVMTQTPSSLSASLGDRVTISCRASQDISNYLNWYQQKPDGTVKLLIYYTSRLHSGVPSRFSGSGSGTDYSLTISNLEQEDIATYFCQQGNTLPLTFGAGTKLEIKASTKGPSVFPLAPCSRSTSESTAALGCLVKDYFPEPVTVSWNSGALTSGVHTFPAVLQSSGLYSLSSVVTVPSSNFGTQTYTCNVDHKPSNTKVDKTVGGGGSAAAEPKSSDKTHTCPPCPAPEAAGGPSVFLFPPKPKDTLMISRTPEVTCVVVDVSHEDPEVKFNWYVDGVEVHNAKTKPREEQYNSTYRVVSVLTVLHQDWLNGKEYKCKVSNKALPAPIEKTISKAKGQPREPQVYTLPPSREEMTKNQVSLTCLVKGFYPSDIAVEWESNGQPENNYDTTPPVLDSDGSFFLYSDLTVDKSRWQQGNVFSCSVMHEALHNHYTQKSLSLSPGK chain 2: not shown",binding result,[3],binds
aCD3-Fc-aFOLR1 (bispecific antibody) chain 1: EVQLVESGGGLVQPGGSLKLSCAASGFTFNSYAMNWVRQAPGKGLEWVARIRSKYNNYATYYADSVKGRFTISRDDSKNTAYLQMNNLKTEDTAVYYCVRHGNFGNSYVSWWAYWGQGTLVTVSSASTKGPSVFPLAPSSKSTSGGTAALGCLVKDYFPEPVTVSWNSGALTSGVHTFPAVLQSSGLYSLSSVVTVPSSSLGTQTYICNVNHKPSNTKVDKRVEPKSCDKTHTCPPCPAPEAAGGPSVFLFPPKPKDTLMISRTPEVTCVVVDVSHEDPEVKFNWYVDGVEVHNAKTKPREEQYNSTYRVVSVLTVLHQDWLNGKEYKCKVSNKALPAPIEKTISKAKGQPREPQVYTLPPSRKEMTKNQVSLTCLVKGFYPSDIAVEWESNGQPENNYKTTPPVLKSDGSFFLYSKLTVDKSRWQQGNVFSCSVMHEALHNHYTQKSLSLSPGKAAAGGGGSGGGGSQVQLQESGPGLVKPSQTLSLTCTVSGGSISSGAYYWTWIRQHPGKGLEWIGYIYYSGSTYYNPSLKSRVSISIDTSKNQFSLKLSSVTAADTAVYYCARGSSSWFDYWGQGTLVTVSSASTKGPSVFPLAPSSKSTSGGTAALGCLVKDYFPEPVTVSWNSGALTSGVHTFPAVLQSSGLYSLSSVVTVPSSSLGTQTYICNVNHKPSNTKVDKRVEPKSC chain 2: not shown,"EC50 (pM), T cell dependent cytolysis of Cal-51 cells",folate receptor 1 [2],306 pM
aHER2-Fc-aCD3 (bispecific antibody) chain 1: EVQLLEQSGAELVRPGALVKLSCKASGFKIKDYFVNWVKQRPEQGLEWIGWIDPENDNSLYGPNFQDKASITADTSSNTGYLQLSGLTSEDTAVYYCALYYGSRGDAMDYWGQGTTVTVSSASTKGPSVFPLAPSSKSTSGGTAALGCLVKDYFPEPVTVSWNSGALTSGVHTFPAVLQSSGLYSLSSVVTVPSSSLGTQTYICNVNHKPSNTKVDKRVEPKSCDKTHTCPPCPAPEAAGGPSVFLFPPKPKDTLMISRTPEVTCVVVDVSHEDPEVKFNWYVDGVEVHNAKTKPREEQYNSTYRVVSVLTVLHQDWLNGKEYKCKVSNKALPAPIEKTISKAKGQPREPQVYTLPPSRKEMTKNQVSLTCLVKGFYPSDIAVEWESNGQPENNYKTTPPVLKSDGSFFLYSKLTVDKSRWQQGNVFSCSVMHEALHNHYTQKSLSLSPGKAAAGGGGSGGGGSEVQLVESGGGLVQPGGSLKLSCAASGFTFNSYAMNWVRQAPGKGLEWVARIRSKYNNYATYYADSVKGRFTISRDDSKNTAYLQMNNLKTEDTAVYYCVRHGNFGNSYVSWWAYWGQGTLVTVSSASTKGPSVFPLAPSSKSTSGGTAALGCLVKDYFPEPVTVSWNSGALTSGVHTFPAVLQSSGLYSLSSVVTVPSSSLGTQTYICNVNHKPSNTKVDKRVEPKSC chain 2: not shown,"EC50 (pM), % CD25+ T cells (with SKOV-3 cells)",[4],79.3 pM
same,"EC50 (pM), % of T cells that are dividing (with SKOV-3 cells)",[4],76.7 pM
same,"EC50, T cell dependent cytolysis of JIMT-1 cells",[5],0.0565 nM
same,"EC50 (pM), T cell dependent cytolysis of BT474 cells",[6],638 pM
same,"EC50 (pM), T cell dependent cytolysis of SKOV-3 cells",[6],165 pM
aCD3-Fc-aHER2 (bispecific antibody) chain 1: EVQLVESGGGLVQPGGSLKLSCAASGFTFNSYAMNWVRQAPGKGLEWVARIRSKYNNYATYYADSVKGRFTISRDDSKNTAYLQMNNLKTEDTAVYYCVRHGNFGNSYVSWWAYWGQGTLVTVSSASTKGPSVFPLAPSSKSTSGGTAALGCLVKDYFPEPVTVSWNSGALTSGVHTFPAVLQSSGLYSLSSVVTVPSSSLGTQTYICNVNHKPSNTKVDKRVEPKSCDKTHTCPPCPAPEAAGGPSVFLFPPKPKDTLMISRTPEVTCVVVDVSHEDPEVKFNWYVDGVEVHNAKTKPREEQYNSTYRVVSVLTVLHQDWLNGKEYKCKVSNKALPAPIEKTISKAKGQPREPQVYTLPPSRKEMTKNQVSLTCLVKGFYPSDIAVEWESNGQPENNYKTTPPVLKSDGSFFLYSKLTVDKSRWQQGNVFSCSVMHEALHNHYTQKSLSLSPGKAAAGGGGSGGGGSEVQLLEQSGAELVRPGALVKLSCKASGFKIKDYFVNWVKQRPEQGLEWIGWIDPENDNSLYGPNFQDKASITADTSSNTGYLQLSGLTSEDTAVYYCALYYGSRGDAMDYWGQGTTVTVSSASTKGPSVFPLAPSSKSTSGGTAALGCLVKDYFPEPVTVSWNSGALTSGVHTFPAVLQSSGLYSLSSVVTVPSSSLGTQTYICNVNHKPSNTKVDKRVEPKSC chain 2: not shown,"EC50, T cell dependent cytolysis of JIMT-1 cells",[5],0.0518 nM
